Assay results as given in patent US20140087995A1 (published 2014).
Numbered stars: 1 amine (or outer) side, 2 acyl side, 3 side chain; on linkers, the order of the positions; unused ones are H or OH. Bridge positions count the residues as written; N and C are the ends. Side chains are listed from the residue outwards. Ends that are not written are not given here. * marks the point of attachment. C20 diacid = O=C(O)CCCCCCCCCCCCCCCCCCC(=O)*; γGlu = O=C(O)[C@H](CCC(=O)[*:2])N[*:1]; AEEA = NCCOCCOCC(=O)O

T1: human amylin receptor (amylin 3(a) receptor: human calcitonin receptor plus RAMP-3) (human, UniProt P30988 25-474; O60896 24-148)
T1 sequence (looked up) 1: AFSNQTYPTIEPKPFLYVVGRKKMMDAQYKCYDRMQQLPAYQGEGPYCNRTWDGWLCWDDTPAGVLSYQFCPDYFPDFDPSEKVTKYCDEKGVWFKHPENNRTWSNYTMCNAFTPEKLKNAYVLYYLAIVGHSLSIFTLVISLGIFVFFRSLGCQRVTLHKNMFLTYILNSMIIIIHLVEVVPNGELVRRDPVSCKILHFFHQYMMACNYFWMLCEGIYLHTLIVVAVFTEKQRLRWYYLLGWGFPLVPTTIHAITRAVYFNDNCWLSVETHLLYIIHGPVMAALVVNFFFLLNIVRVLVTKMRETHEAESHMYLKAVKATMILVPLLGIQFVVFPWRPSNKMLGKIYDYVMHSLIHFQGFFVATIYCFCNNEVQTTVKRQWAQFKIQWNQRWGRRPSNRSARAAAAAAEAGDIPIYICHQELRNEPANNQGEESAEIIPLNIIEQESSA
T1 sequence (looked up) 2: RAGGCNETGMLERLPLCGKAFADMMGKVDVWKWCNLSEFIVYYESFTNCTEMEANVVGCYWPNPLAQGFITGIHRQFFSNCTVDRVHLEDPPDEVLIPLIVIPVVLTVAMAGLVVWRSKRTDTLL

T2: human calcitonin receptor (human, UniProt P30988 25-474)
T2 sequence (looked up): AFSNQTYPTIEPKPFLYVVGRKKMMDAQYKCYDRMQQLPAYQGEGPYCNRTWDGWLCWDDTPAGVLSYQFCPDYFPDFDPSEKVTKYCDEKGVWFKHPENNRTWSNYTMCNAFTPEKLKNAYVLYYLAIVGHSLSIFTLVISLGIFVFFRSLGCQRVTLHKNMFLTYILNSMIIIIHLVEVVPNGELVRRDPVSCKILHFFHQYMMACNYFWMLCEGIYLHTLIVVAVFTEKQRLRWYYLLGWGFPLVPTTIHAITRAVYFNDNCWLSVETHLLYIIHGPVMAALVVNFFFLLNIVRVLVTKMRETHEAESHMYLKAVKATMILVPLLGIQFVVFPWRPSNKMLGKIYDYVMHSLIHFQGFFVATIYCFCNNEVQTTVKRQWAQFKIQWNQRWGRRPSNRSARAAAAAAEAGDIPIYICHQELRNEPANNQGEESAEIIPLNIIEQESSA


Legend:
[1] = molecular target: T1, human amylin receptor (amylin 3(a) …); assay: cell-based or functional assay
[2] = molecular target: T2, human calcitonin receptor; assay: cell-based or functional assay
[3] = molecular target: T1, human amylin receptor (amylin 3(a) …); assay: SPA competition binding, displacement of 125I-rat amylin, membranes of BHK amylin 3(a)/CRE-luc cells
Description: The binding assay was performed using scintillation proximity assay (SPA) beads (RPNQ0001) from PerkinElmer and cell membranes from the Amylin 3(a)/CRE-luc cells (as described in Assay (II)) were used. Membranes were prepared in the following way; the cells were rinsed with PBS and incubated with Versene for approximately 5 min before harvesting. The cells were flushed with PBS and the cell-suspension was centrifuged for 5 min at 1000 rpm. Cells were homogenized (ultrathurrax) in a buffer containing 20 mM Na-HEPES and 10 mM EDTA (pH 7.4) and centrifuged at 20.000 rpm for 15 min. The resulting pellet was resuspended, homogenized and centrifuged (20.000 rpm, 15 min) in a buffer containing 20 mM Na-HEPES and 0.1 mM EDTA (pH 7.4, buffer 2). The resulting pellet was resuspended in buffer 2 and protein concentration was measured (BCA protein Assay, Pierce). The homogenate was kept cold during the whole procedure. The membranes were kept at −80° C. until use. The assay was performed in a 384 well Optiplate (PerkinElmer) in a total volume of 40 ul. Membranes were mixed with SPA beads. Final concentration of membranes 35 ng/μL final and SPA beads was 0.05 mg/well. Test-compounds were dissolved in DMSO and further diluted in assay buffer (50 mM Hepes, pH 7.4, 1 mM CaCl2, 5 mM MgCl₂, 0.1% OA and 0.02% Tween20). […] The final mixture was incubated with shaking at 400 rpm for 120 min at 25° C. prior to centrifugation (1500 rpm, 10 min). Samples were analyzed on TopCounter™ (Packard). The IC₅₀ was calculated using (one site binding competition analysis) GraphPad Prism5 as a measure of receptor affinity.

Row | Binder | Ratio hCT/hAmylin funct. [1] | hAmylin-R funct. EC50 (pM) [1] [pM] | hCTR funct. EC50 (pM) [2] [pM] | IC50 [3] [nM]
1 | {C20 diacid-γGlu}-KCNTATCATQRLANFLRHSSPNFGAIPSSTPVGSETY-NH2 (disulfide 2-7; SMILES CC[C@H](C)[C@H](NC(=O)[C@H](C)NC(=O)CNC(=O)[C@H](Cc1ccccc1)NC(=O)[C@H](CC(N)=O)NC(=O)[C@@H]1CCCN1C(=O)[C@H](CO)NC(=O)[C@H](CO)NC(=O)[C@H](Cc1c[nH]cn1)NC(=O)[C@H](CCCNC(=N)N)NC(=O)[C@H](CC(C)C)NC(=O)[C@H](Cc1ccccc1)NC(=O)[C@H](CC(N)=O)NC(=O)[C@H](C)NC(=O)[C@H](CC(C)C)NC(=O)[C@H](CCCNC(=N)N)NC(=O)[C@H](CCC(N)=O)NC(=O)[C@@H](NC(=O)[C@H](C)NC(=O)[C@@H]1CSSC[C@H](NC(=O)[C@H](CCCCN)NC(=O)CC[C@H](NC(=O)CCCCCCCCCCCCCCCCCCC(=O)O)C(=O)O)C(=O)N[C@@H](CC(N)=O)C(=O)N[C@@H]([C@@H](C)O)C(=O)N[C@@H](C)C(=O)N[C@@H]([C@@H](C)O)C(=O)N1)[C@@H](C)O)C(=O)N1CCC[C@H]1C(=O)N[C@@H](CO)C(=O)N[C@@H](CO)C(=O)N[C@H](C(=O)N1CCC[C@H]1C(=O)N[C@H](C(=O)NCC(=O)N[C@@H](CO)C(=O)N[C@@H](CCC(=O)O)C(=O)N[C@H](C(=O)N[C@@H](Cc1ccc(O)cc1)C(N)=O)[C@@H](C)O)C(C)C)[C@@H](C)O, also called compound 28) | 9.2 | 220 | 2030 | 0.61
2 | {C20 diacid-γGlu}-KCNTATCATQRLAHFLRHSSPNFGAIPSSTNVGSETY-NH2 (disulfide 2-7; SMILES CC[C@H](C)[C@H](NC(=O)[C@H](C)NC(=O)CNC(=O)[C@H](Cc1ccccc1)NC(=O)[C@H](CC(N)=O)NC(=O)[C@@H]1CCCN1C(=O)[C@H](CO)NC(=O)[C@H](CO)NC(=O)[C@H](Cc1c[nH]cn1)NC(=O)[C@H](CCCNC(=N)N)NC(=O)[C@H](CC(C)C)NC(=O)[C@H](Cc1ccccc1)NC(=O)[C@H](Cc1c[nH]cn1)NC(=O)[C@H](C)NC(=O)[C@H](CC(C)C)NC(=O)[C@H](CCCNC(=N)N)NC(=O)[C@H](CCC(N)=O)NC(=O)[C@@H](NC(=O)[C@H](C)NC(=O)[C@@H]1CSSC[C@H](NC(=O)[C@H](CCCCN)NC(=O)CC[C@H](NC(=O)CCCCCCCCCCCCCCCCCCC(=O)O)C(=O)O)C(=O)N[C@@H](CC(N)=O)C(=O)N[C@@H]([C@@H](C)O)C(=O)N[C@@H](C)C(=O)N[C@@H]([C@@H](C)O)C(=O)N1)[C@@H](C)O)C(=O)N1CCC[C@H]1C(=O)N[C@@H](CO)C(=O)N[C@@H](CO)C(=O)N[C@H](C(=O)N[C@@H](CC(N)=O)C(=O)N[C@H](C(=O)NCC(=O)N[C@@H](CO)C(=O)N[C@@H](CCC(=O)O)C(=O)N[C@H](C(=O)N[C@@H](Cc1ccc(O)cc1)C(N)=O)[C@@H](C)O)C(C)C)[C@@H](C)O, also called compound 30) |  | 134 | 1680 | 0.919
3 | K([AEEA-AEEA-γGlu-C20 diacid])CNTATCATQRLANFLRHSSPNFGAIPSSTNVGSETY-NH2 (disulfide 2-7; N-terminus assumed; SMILES CC[C@H](C)[C@H](NC(=O)[C@H](C)NC(=O)CNC(=O)[C@H](Cc1ccccc1)NC(=O)[C@H](CC(N)=O)NC(=O)[C@@H]1CCCN1C(=O)[C@H](CO)NC(=O)[C@H](CO)NC(=O)[C@H](Cc1c[nH]cn1)NC(=O)[C@H](CCCNC(=N)N)NC(=O)[C@H](CC(C)C)NC(=O)[C@H](Cc1ccccc1)NC(=O)[C@H](CC(N)=O)NC(=O)[C@H](C)NC(=O)[C@H](CC(C)C)NC(=O)[C@H](CCCNC(=N)N)NC(=O)[C@H](CCC(N)=O)NC(=O)[C@@H](NC(=O)[C@H](C)NC(=O)[C@@H]1CSSC[C@H](NC(=O)[C@@H](N)CCCCNC(=O)COCCOCCNC(=O)COCCOCCNC(=O)CC[C@H](NC(=O)CCCCCCCCCCCCCCCCCCC(=O)O)C(=O)O)C(=O)N[C@@H](CC(N)=O)C(=O)N[C@@H]([C@@H](C)O)C(=O)N[C@@H](C)C(=O)N[C@@H]([C@@H](C)O)C(=O)N1)[C@@H](C)O)C(=O)N1CCC[C@H]1C(=O)N[C@@H](CO)C(=O)N[C@@H](CO)C(=O)N[C@H](C(=O)N[C@@H](CC(N)=O)C(=O)N[C@H](C(=O)NCC(=O)N[C@@H](CO)C(=O)N[C@@H](CCC(=O)O)C(=O)N[C@H](C(=O)N[C@@H](Cc1ccc(O)cc1)C(N)=O)[C@@H](C)O)C(C)C)[C@@H](C)O, also called compound 25) | 46.2 | 217 | 10000 | 0.768
4 | {C20 diacid-γGlu}-KCNTATCATQRLAEFLRHSSPNFGAILPSTNVGSETY-NH2 (disulfide 2-7, also called compound 33) | 2.2 | 243 | 528 | 0.915

The next binders have a lower IC50 [3] than those just listed; values first:

Row | Ratio hCT/hAmylin funct. [1] | hAmylin-R funct. EC50 (pM) [1] [pM] | hCTR funct. EC50 (pM) [2] [pM] | IC50 [3] [nM] | Binder
5 | 4.8 | 154 | 742 | 0.554 | {C20 diacid-γGlu}-KCNTATCATQRLAEFLRHSSPNFGAIPSSTNVGSHTY-NH2 (disulfide 2-7; SMILES CC[C@H](C)[C@H](NC(=O)[C@H](C)NC(=O)CNC(=O)[C@H](Cc1ccccc1)NC(=O)[C@H](CC(N)=O)NC(=O)[C@@H]1CCCN1C(=O)[C@H](CO)NC(=O)[C@H](CO)NC(=O)[C@H](Cc1c[nH]cn1)NC(=O)[C@H](CCCNC(=N)N)NC(=O)[C@H](CC(C)C)NC(=O)[C@H](Cc1ccccc1)NC(=O)[C@H](CCC(=O)O)NC(=O)[C@H](C)NC(=O)[C@H](CC(C)C)NC(=O)[C@H](CCCNC(=N)N)NC(=O)[C@H](CCC(N)=O)NC(=O)[C@@H](NC(=O)[C@H](C)NC(=O)[C@@H]1CSSC[C@H](NC(=O)[C@H](CCCCN)NC(=O)CC[C@H](NC(=O)CCCCCCCCCCCCCCCCCCC(=O)O)C(=O)O)C(=O)N[C@@H](CC(N)=O)C(=O)N[C@@H]([C@@H](C)O)C(=O)N[C@@H](C)C(=O)N[C@@H]([C@@H](C)O)C(=O)N1)[C@@H](C)O)C(=O)N1CCC[C@H]1C(=O)N[C@@H](CO)C(=O)N[C@@H](CO)C(=O)N[C@H](C(=O)N[C@@H](CC(N)=O)C(=O)N[C@H](C(=O)NCC(=O)N[C@@H](CO)C(=O)N[C@@H](Cc1c[nH]cn1)C(=O)N[C@H](C(=O)N[C@@H](Cc1ccc(O)cc1)C(N)=O)[C@@H](C)O)C(C)C)[C@@H](C)O, also called compound 18)
6 | 8.7 | 99 | 857 | 0.577 | {C20 diacid-γGlu}-KCNTATCATQRLANFLRHSSPNFGAIPSSTNVGPETY-NH2 (disulfide 2-7; SMILES CC[C@H](C)[C@H](NC(=O)[C@H](C)NC(=O)CNC(=O)[C@H](Cc1ccccc1)NC(=O)[C@H](CC(N)=O)NC(=O)[C@@H]1CCCN1C(=O)[C@H](CO)NC(=O)[C@H](CO)NC(=O)[C@H](Cc1c[nH]cn1)NC(=O)[C@H](CCCNC(=N)N)NC(=O)[C@H](CC(C)C)NC(=O)[C@H](Cc1ccccc1)NC(=O)[C@H](CC(N)=O)NC(=O)[C@H](C)NC(=O)[C@H](CC(C)C)NC(=O)[C@H](CCCNC(=N)N)NC(=O)[C@H](CCC(N)=O)NC(=O)[C@@H](NC(=O)[C@H](C)NC(=O)[C@@H]1CSSC[C@H](NC(=O)[C@H](CCCCN)NC(=O)CC[C@H](NC(=O)CCCCCCCCCCCCCCCCCCC(=O)O)C(=O)O)C(=O)N[C@@H](CC(N)=O)C(=O)N[C@@H]([C@@H](C)O)C(=O)N[C@@H](C)C(=O)N[C@@H]([C@@H](C)O)C(=O)N1)[C@@H](C)O)C(=O)N1CCC[C@H]1C(=O)N[C@@H](CO)C(=O)N[C@@H](CO)C(=O)N[C@H](C(=O)N[C@@H](CC(N)=O)C(=O)N[C@H](C(=O)NCC(=O)N1CCC[C@H]1C(=O)N[C@@H](CCC(=O)O)C(=O)N[C@H](C(=O)N[C@@H](Cc1ccc(O)cc1)C(N)=O)[C@@H](C)O)C(C)C)[C@@H](C)O, also called compound 29)
